Legend:
[1] = substrate: CC(=O)Oc1ccc([N+](=O)[O-])cc1; test: purified protein; type: biochemical, Marinactinospora thermotolerans; conditions: 30°C, 20 mM Tris-HCl pH 8.0
[2] = substrate: CCCC(=O)Oc1ccc([N+](=O)[O-])cc1; test: purified protein; type: biochemical, Marinactinospora thermotolerans; conditions: 30°C, 20 mM Tris-HCl pH 8.0
[3] = substrate: CCCCCC(=O)Oc1ccc([N+](=O)[O-])cc1; test: purified protein; type: biochemical, Marinactinospora thermotolerans; conditions: 30°C, 20 mM Tris-HCl pH 8.0
[4] = substrate: CCCCCCCC(=O)Oc1ccc([N+](=O)[O-])cc1; test: purified protein; type: biochemical, Marinactinospora thermotolerans; conditions: 30°C, 20 mM Tris-HCl pH 8.0
[5] = substrate: CCCCCCCCCC(=O)Oc1ccc([N+](=O)[O-])cc1; test: purified protein; type: biochemical, Marinactinospora thermotolerans; conditions: 30°C, 20 mM Tris-HCl pH 8.0
[6] = substrate: CCCCCCCCCCCC(=O)Oc1ccc([N+](=O)[O-])cc1; test: purified protein; type: biochemical, Marinactinospora thermotolerans; conditions: 30°C, 20 mM Tris-HCl pH 8.0
[7] = substrate: CCCCCCCCCCCCCC(=O)Oc1ccc([N+](=O)[O-])cc1; test: purified protein; type: biochemical, Marinactinospora thermotolerans; conditions: 30°C, 20 mM Tris-HCl pH 8.0
[8] = substrate: CCCCCCCCCCCCCCCC(=O)Oc1ccc([N+](=O)[O-])cc1; test: purified protein; type: biochemical, Marinactinospora thermotolerans; conditions: 30°C, 20 mM Tris-HCl pH 8.0
[9] = substrate: CCCCCCCCCCCCCCCCCC(=O)Oc1ccc([N+](=O)[O-])cc1; test: purified protein; type: biochemical, Marinactinospora thermotolerans; conditions: 30°C, 20 mM Tris-HCl pH 8.0
[10] = substrate: O=C(O)c1ccc(C(=O)OCCO)cc1; test: HPLC substrate reduction, Michaelis-Menten fit; type: biochemical, Marinactinospora thermotolerans; conditions: 40°C, 20 mM Tris-HCl pH 8.0
Excerpt: (§1) HPLC substrate reduction, Michaelis-Menten fit on MtCut

[11] = substrate: O=C(OCCO)c1ccc(C(=O)OCCO)cc1; test: HPLC substrate reduction, Michaelis-Menten fit; type: biochemical, Marinactinospora thermotolerans; conditions: 40°C, 20 mM Tris-HCl pH 8.0
Excerpt: as §1

[12] = substrate: O=C(O)c1ccc(C(=O)OCCO)cc1; test: HPLC substrate reduction, Michaelis-Menten fit; type: biochemical, unidentified prokaryotic organism; conditions: 40°C, 20 mM Tris-HCl pH 8.0
Excerpt: (§2) HPLC substrate reduction, Michaelis-Menten fit on ICCG

[13] = substrate: O=C(OCCO)c1ccc(C(=O)OCCO)cc1; test: HPLC substrate reduction, Michaelis-Menten fit; type: biochemical, unidentified prokaryotic organism; conditions: 40°C, 20 mM Tris-HCl pH 8.0
Excerpt: as §2

[14] = substrate: O=C(O)c1ccc(C(=O)OCCO)cc1; test: HPLC substrate reduction, Michaelis-Menten fit; type: biochemical, Pseudideonella sakaiensis; conditions: 40°C, 20 mM Tris-HCl pH 8.0
Excerpt: (§3) HPLC substrate reduction, Michaelis-Menten fit on IsPETase

[15] = substrate: O=C(OCCO)c1ccc(C(=O)OCCO)cc1; test: HPLC substrate reduction, Michaelis-Menten fit; type: biochemical, Pseudideonella sakaiensis; conditions: 40°C, 20 mM Tris-HCl pH 8.0
Excerpt: as §3

B1: MtCut (Marinactinospora thermotolerans DSM 45154) (protein)
chain: NPYERGPAPTESSVTAVRGYFDTDTDTVSSLVSGFGGGTIYYPTDTSEGTFGGVVIAPGYTASQSSMAWMGHRIASQGFVVFTIDTITRYDQPDSRGRQIEAALDYLVEDSDVADRVDGNRLAVMGHSMGGGGTLAAAENRPELRAAIPLTPWHLQKNWSDVEVPTMIIGAENDTVASVRTHSIPFYESLDEDLERAYLELDGASHFAPNISNTVIAKYSISWLKRFVDEDERYEQFLCPPPDTGLFSDFSDYRDSCPHTT
notes: 786 bp fragment, signal peptide removed, C-terminal His6 (pET22b(+), NdeI/XhoI), E. coli BL21(DE3), 34 kDa
- Km [1]: 0.55 ± 0.04 mM
- kcat [1]: 4.47 ± 0.28 s⁻¹
- kcat/Km [1]: 8190 ± 340 M⁻¹ s⁻¹
- Km [2]: 1.33 ± 0.15 mM
- kcat [2]: 14.1 ± 1.51 s⁻¹
- kcat/Km [2]: 10600 ± 100 M⁻¹ s⁻¹
- Km [3]: 4.61 ± 1.04 mM
- kcat [3]: 41.7 ± 6.35 s⁻¹
- kcat/Km [3]: 9230 ± 900 M⁻¹ s⁻¹
- Km [4]: 2.55 ± 0.28 mM
- kcat [4]: 79.4 ± 8.75 s⁻¹
- kcat/Km [4]: 31100 ± 50 M⁻¹ s⁻¹
- Km [5]: 4.93 ± 0.53 mM
- kcat [5]: 69.8 ± 5.15 s⁻¹
- kcat/Km [5]: 14200 ± 500 M⁻¹ s⁻¹
- Km [6]: 1.68 ± 0.12 mM
- kcat [6]: 30.5 ± 3.63 s⁻¹
- kcat/Km [6]: 18100 ± 1200 M⁻¹ s⁻¹
- Km [7]: 0.19 ± 0.04 mM
- kcat [7]: 9.87 ± 1.52 s⁻¹
- kcat/Km [7]: 51400 ± 2900 M⁻¹ s⁻¹
- Km [8]: 0.15 ± 0.01 mM
- kcat [8]: 4.79 ± 0.12 s⁻¹
- kcat/Km [8]: 32500 ± 1000 M⁻¹ s⁻¹
- Km [9]: 0.45 ± 0.02 mM
- kcat [9]: 14.3 ± 0.58 s⁻¹
- kcat/Km [9]: 31800 ± 200 M⁻¹ s⁻¹
- Km [10]: 0.75 ± 0.11 mM
- kcat [10]: 0.13 ± 0.01 s⁻¹
- kcat/Km [10]: 176 ± 14 M⁻¹ s⁻¹
- Km [11]: 3.07 ± 0.93 mM
- kcat [11]: 4.27 ± 1.15 s⁻¹
- kcat/Km [11]: 1410 ± 70 M⁻¹ s⁻¹

B2: ICCG (unidentified prokaryotic organism; D238C/F243I/S283C/Y127G) (protein)
chain: SNPYQRGPNPTRSALTADGPFSVATYTVSRLSVSGFGGGVIYYPTGTSLTFGGIAMSPGYTADASSLAWLGRRLASHGFVVLVINTNSRFDGPDSRASQLSAALNYLRTSSPSAVRARLDANRLAVAGHSMGGGGTLRIAEQNPSLKAAVPLTPWHTDKTFNTSVPVLIVGAEADTVAPVSQHAIPFYQNLPSTTPKVYVELCNASHIAPNSNNAAISVYTISWMKLWVDNDTRYRQFLCNVNDPALCDFRTNNRHCQ
notes: quadruple variant of LCC; only D238C/S283C given, the other two changes (F243I, Y127G) known from Tournier et al. 2020; expression construct not described; PDB 6THT given as the ICCG structure used for modelling
- Km [12]: 0.43 ± 0.02 mM
- kcat [12]: 0.0032 ± 0.0001 s⁻¹
- kcat/Km [12]: 6.75 ± 0.32 M⁻¹ s⁻¹
- Km [13]: 2.58 ± 0.98 mM
- kcat [13]: 2.29 ± 0.95 s⁻¹
- kcat/Km [13]: 1000 ± 170 M⁻¹ s⁻¹

B3: IsPETase (Pseudideonella sakaiensis) (protein)
chain: QTNPYARGPNPTAASLEASAGPFTVRSFTVSRPSGYGAGTVYYPTNAGGTVGAIAIVPGYTARQSSIKWWGPRLASHGFVVITIDTNSTLDQPSSRSSQQMAALRQVASLNGTSSSPIYGKVDTARMGVMGWSMGGGGSLISAANNPSLKAAAPQAPWDSSTNFSSVTVPTLIFACENDSIAPVNSSALPIYDSMSRNAKQFLEINGGSHSCANSGNSNQALIGKKGVAWMKRFMDNDTRYSTFACENPNSTRVSDFRTANCS
notes: purified enzyme; expression construct not described
- Km [14]: 0.72 ± 0.02 mM
- kcat [14]: 0.0139 ± 0.0006 s⁻¹
- kcat/Km [14]: 19.2 ± 0.45 M⁻¹ s⁻¹
- Km [15]: 4.48 ± 0.54 mM
- kcat [15]: 5.95 ± 0.62 s⁻¹
- kcat/Km [15]: 1330 ± 20 M⁻¹ s⁻¹

— paper PMC9086285, “Catalytic Features and Thermal Adaptation Mechanisms of a Deep Sea Bacterial Cutinase-Type Poly(Ethylene Terephthalate) Hydrolase” (Frontiers in Bioengineering and Biotechnology, 2022)
